Article PMC11574045, “A cofactor-induced repressive type of transcription factor condensation can be induced by synthetic peptides to suppress tumorigenesis” (The EMBO Journal, 2024)

B1: HES1 (protein, UniProt Q14469 1-280, looked up)
Transcription factor HES-1: MPADIMEKNSSSPVAATPASVNTTPDKPKTASEHRKSSKPIMEKRRRARINESLSQLKTLILDALKKDSSRHSKLEKADILEMTVKHLRNLQRAQMTAALSTDPSVLGKYRAGFSECMNEVTRFLSTCEGVNTEVRTRLLGHLANCMTQINAMTYPGQPHPALQAPPPPPPGPGGPQHAPFAPPPPLVPIPGGAAPPPGGAPCKLGSQAGEAAKVFGGFQVVPAPDGQFAFLIPNGAFAHSGPVIPVYTSNSGTSVGPNAVSPSSGPSLTADSMWRPWRN
B2: HLF (protein, UniProt Q16534 1-295, looked up)
Hepatic leukemia factor: MEKMSRPLPLNPTFIPPPYGVLRSLLENPLKLPLHHEDAFSKDKDKEKKLDDESNSPTVPQSAFLGPTLWDKTLPYDGDTFQLEYMDLEEFLSENGIPPSPSQHDHSPHPPGLQPASSAAPSVMDLSSRASAPLHPGIPSPNCMQSPIRPGQLLPANRNTPSPIDPDTIQVPVGYEPDPADLALSSIPGQEMFDPRKRKFSEEELKPQPMIKKARKVFIPDDLKDDKYWARRRKNNMAAKRSRDARRLKENQIAIRASFLEKENSALRQEVADLRKELGKCKNILAKYEARHGPL
B3: HHEX (protein, UniProt Q03014 1-270, looked up)
Hematopoietically-expressed …: MQYPHPGPAAGAVGVPLYAPTPLLQPAHPTPFYIEDILGRGPAAPTPAPTLPSPNSSFTSLVSPYRTPVYEPTPIHPAFSHHSAAALAAAYGPGGFGGPLYPFPRTVNDYTHALLRHDPLGKPLLWSPFLQRPLHKRKGGQVRFSNDQTIELEKKFETQKYLSPPERKRLAKMLQLSERQVKTWFQNRRAKWRRLKQENPQSNKKEELESLDSSCDQRQDLPSEQNKGASLDSSQCSPSPASQEDLESEISEDSDQEVDIEGDKSYFNAG
B4: HELIOS (protein, UniProt Q9UKS7 1-526, looked up)
Zinc finger protein Helios: METEAIDGYITCDNELSPEREHSNMAIDLTSSTPNGQHASPSHMTSTNSVKLEMQSDEECDRKPLSREDEIRGHDEGSSLEEPLIESSEVADNRKVQELQGEGGIRLPNGKLKCDVCGMVCIGPNVLMVHKRSHTGERPFHCNQCGASFTQKGNLLRHIKLHSGEKPFKCPFCSYACRRRDALTGHLRTHSVGKPHKCNYCGRSYKQRSSLEEHKERCHNYLQNVSMEAAGQVMSHHVPPMEDCKEQEPIMDNNISLVPFERPAVIEKLTGNMGKRKSSTPQKFVGEKLMRFSYPDIHFDMNLTYEKEAELMQSHMMDQAINNAITYLGAEALHPLMQHPPSTIAEVAPVISSAYSQVYHPNRIERPISRETADSHENNMDGPISLIRPKSRPQEREASPSNSCLDSTDSESSHDDHQSYQGHPALNPKRKQSPAYMKEDVKALDTTKAPKGSLKDIYKVFNGEGEQIRAFKCEHCRVLFLDHVMYTIHMGCHGYRDPLECNICGYRSQDRYEFSSHIVRGEHTFH
B5: HES3 (protein, UniProt Q61657 1-175, looked up)
Transcription factor HES-3: MEKKRRARINVSLEQLRSLLERHYSHQIRKRKLEKADILELSVKYMRSLQNSLQGLWPVPSGVDYPSGFQGGLRGVSQRLRPGEGDSGLRCPLLLQRREGSTTDSANPQATSVLNPCLPAIWAPSRAAGGSHSPQSPLPLPGGLLESSTDVVAPHPASNCQAESTRPGFRVWRPW
B6: APBB1 (protein, UniProt O00213 1-710, looked up)
Amyloid beta precursor …: MSVPSSLSQSAINANSHGGPALSLPLPLHAAHNQLLNAKLQATAVGPKDLRSAMGEGGGPEPGPANAKWLKEGQNQLRRAATAHRDQNRNVTLTLAEEASQEPEMAPLGPKGLIHLYSELELSAHNAANRGLRGPGLIISTQEQGPDEGEEKAAGEAEEEEEDDDDEEEEEDLSSPPGLPEPLESVEAPPRPQALTDGPREHSKSASLLFGMRNSAASDEDSSWATLSQGSPSYGSPEDTDSFWNPNAFETDSDLPAGWMRVQDTSGTYYWHIPTGTTQWEPPGRASPSQGSSPQEESQLTWTGFAHGEGFEDGEFWKDEPSDEAPMELGLKEPEEGTLTFPAQSLSPEPLPQEEEKLPPRNTNPGIKCFAVRSLGWVEMTEEELAPGRSSVAVNNCIRQLSYHKNNLHDPMSGGWGEGKDLLLQLEDETLKLVEPQSQALLHAQPIISIRVWGVGRDSGRERDFAYVARDKLTQMLKCHVFRCEAPAKNIATSLHEICSKIMAERRNARCLVNGLSLDHSKLVDVPFQVEFPAPKNELVQKFQVYYLGNVPVAKPVGVDVINGALESVLSSSSREQWTPSHVSVAPATLTILHQQTEAVLGECRVRFLSFLAVGRDVHTFAFIMAAGPASFCCHMFWCEPNAASLSEAVQAACMLRYQKCLDARSQASTSCLPAPPAESVARRVGWTVRRGVQSLWGSLKPKRLGAHTP
B7: HES5 (protein, UniProt Q5TA89 1-166, looked up)
Transcription factor HES-5: MAPSTVAVELLSPKEKNRLRKPVVEKMRRDRINSSIEQLKLLLEQEFARHQPNSKLEKADILEMAVSYLKHSKAFVAAAGPKSLHQDYSEGYSWCLQEAVQFLTLHAASDTQMKLLYHFQRPPAAPAAPAKEPKAPGAAPPPALSAKATAAAAAAHQPACGLWRPW
B8: HESX (protein, UniProt Q9UBX0 1-185, looked up)
Homeobox expressed in ES …: MSPSLQEGAQLGENKPSTCSFSIERILGLDQKKDCVPLMKPHRPWADTCSSSGKDGNLCLHVPNPPSGISFPSVVDHPMPEERASKYENYFSASERLSLKRELSWYRGRRPRTAFTQNQIEVLENVFRVNCYPGIDIREDLAQKLNLEEDRIQIWFQNRRAKLKRSHRESQFLMAKKNFNTNLLE
B9: HLX (protein, UniProt Q14774 1-488, looked up)
H2.0-like homeobox protein: MFAAGLAPFYASNFSLWSAAYCSSAGPGGCSFPLDPAAVKKPSFCIADILHAGVGDLGAAPEGLAGASAAALTAHLGSVHPHASFQAAARSPLRPTPVVAPSEVPAGFPQRLSPLSAAYHHHHPQQQQQQQQPQQQQPPPPPRAGALQPPASGTRVVPNPHHSGSAPAPSSKDLKFGIDRILSAEFDPKVKEGNTLRDLTSLLTGGRPAGVHLSGLQPSAGQFFASLDPINEASAILSPLNSNPRNSVQHQFQDTFPGPYAVLTKDTMPQTYKRKRSWSRAVFSNLQRKGLEKRFEIQKYVTKPDRKQLAAMLGLTDAQVKVWFQNRRMKWRHSKEAQAQKDKDKEAGEKPSGGAPAADGEQDERSPSRSEGEAESESSDSESLDMAPSDTERTEGSERSLHQTTVIKAPVTGALITASSAGSGGSSGGGGNSFSFSSASSLSSSSTSAGCASSLGGGGASELLPATQPTASSAPKSPEPAQGALGCL
B10: HELT (protein, UniProt A6NFD8 1-242, looked up)
Hairy and enhancer of …: MSDKLKERKRTPVSHKVIEKRRRDRINRCLNELGKTVPMALAKQSSGKLEKAEILEMTVQYLRALHSADFPRGREKAELLAEFANYFHYGYHECMKNLVHYLTTVERMETKDTKYARILAFLQSKARLGAEPAFPPLGSLPEPDFSYQLHPAGPEFAGHSPGEAAVFPQGSGAGPFPWPPGAARSPALPYLPSAPVPLASPAQQHSPFLTPVQGLDRHYLNLIGHAHPNALNLHTPQHPPVL
B11: HES2 (protein, UniProt Q9Y543 1-173, looked up)
Transcription factor HES-2: MGLPRRAGDAAELRKSLKPLLEKRRRARINQSLSQLKGLILPLLGRENSNCSKLEKADVLEMTVRFLQELPASSWPTAAPLPCDSYREGYSACVARLARVLPACRVLEPAVSARLLEHLWRRAASATLDGGRAGDSSGPSAPAPAPASAPEPASAPVPSPPSPPCGPGLWRPW
B12: HEYL (protein, UniProt Q9NQ87 1-328, looked up)
Hairy/enhancer-of-split …: MKRPKEPSGSDGESDGPIDVGQEGQLSQMARPLSTPSSSQMQARKKHRGIIEKRRRDRINSSLSELRRLVPTAFEKQGSSKLEKAEVLQMTVDHLKMLHATGGTGFFDARALAVDFRSIGFRECLTEVIRYLGVLEGPSSRADPVRIRLLSHLNSYAAEMEPSPTPTGPLAFPAWPWSFFHSCPGLPALSNQLAILGRVPSPVLPGVSSPAYPIPALRTAPLRRATGIILPARRNVLPSRGASSTRRARPLERPATPVPVAPSSRAARSSHIAPLLQSSSPTPPGPTGSAAYVAVPTPNSSSPGPAGRPAGAMLYHSWVSEITEIGAF

System: HEK293FT cells transfected with TF library
Assay: Screening of TF condensates based on fluorescent puncta
Type: cell-based
Details: Figure 1B numerical data; TF library screen, one value per transcriptional factor
Summary of the method: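 Puncta scoring used automated confocal imaging of fifty random fields per well, after anti-Flag or anti-GAL4 immunofluorescence (Alexa 488) in PFA-fixed cells. HEK293FT cells carried TF library plasmids delivered with PEI (1.6 μg/ml DNA). At 60 h they were switched for 12 h to glucose-containing or glucose-free medium.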

Point of comparison: B3, “Z score of condensed fraction” value -0.4373. Against it:
- B1 — lower, -0.8248
- B2 — higher, 2.55
- B4 — lower, -0.5188
- B5 — lower, -1.103
- B6 — higher, 2.844
- B7 — lower, -0.9865
- B8 — lower, -0.5047
- B9 — higher, 2.079
- B10 — lower, -0.4669
- B11 — lower, -1.172
- B12 — higher, 1.497
